Results on five molecules are retold here after patent publication US20220259318A1 (Hoffmann-La Roche, published 2022).

Values joined by “and” are separate entries in the source; they are usually repeats but may differ in a detail not shown here. Equal values may be shown once. Read-outs that look alike come from different tables or passages of the source.

In assay [1] the target is T1, human GPRC5D (human, UniProt Q9NZD1 1-345). The assay can be described thus: cell-based or functional assay.
The target of assay [2] is T1, human GPRC5D. The assay can be described thus: cell-based or functional assay. This is another data set of the same source.
In assay [3] the target is T1, human GPRC5D. The assay is described as follows: cell ELISA, CHO cells stably expressing human GPRC5D. On the procedure: (§1) Stable transfected CHO clones expressing either human GPRCSD or cynomolgus GPRCSD or murine GPRCSD or human GPRCSA were used to analyze the binding of potential lead candidate antibodies as IgGs. In detail, 10⁴ cells (viability≥98%) were seeded into 384 well-microtiter plates (BD Poly D-Lysin, #356662, volume: 25 μl/well) using fresh culture medium. After overnight incubation at 37° C., 25 μl/well dilutions of antibodies were added (15×1:3 dilutions in 1×PBS, assay conc. starts at 30 μg/ml) to the cells for 2 hours at 4° C. After one washing step using 90 μl/well PBST (10×PBS, Roche, #11666789001+0.1% Tween 20), cells were subsequently fixed by the addition of 50 μl/well 0.05% glutaraldehyde (Sigma Cat. No: G5882 in 1×PBS) for 10 min at room temperature (RT). After three additional washing steps using 90 μl/well PBST, secondary antibodies were added for detection: for human antibodies goat anti-human Ig a chain antibody HRP conjugate (Millipore #AP502P) diluted 1:2000 in blocking buffer (1×PBS (Roche #11666789001)+2% BSA (Bovine Serum Albumin Fraction V, fatty acid free, Roche, #10735086001)+0.05% Tween 20) was used (25 μl/well). […] After incubation for 1 h at RT and three additional washing steps using 90 μl/well PBST, 25 μl/well TMB substrate was added (Roche order no. 11835033001) for 10 min and color development to final ODs was determined by measurement at 370 nm/492 nm.

Assay [4] concerns the target T1, human GPRC5D. The assay can be described thus: cell ELISA, CHO hu GPRC5D (EC/IC50 rel). An outline of the steps: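 Stably transfected CHO cells seeded overnight, then incubated 2 h at 4° C with antibody IgGs in 15-point 1:3 dilutions from 30 μg/ml. Cells fixed with 0.05% glutaraldehyde; binding detected with HRP anti-human Ig and TMB, absorbance at 370/492 nm.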

Assay [5] addresses T2, human GPRC5A (human, UniProt Q8NFJ5 1-357).
T2 construct: whole, on cells; also called hu GPCR5A; GPRCSA
The assay can be described thus: cell ELISA on stably transfected CHO cells. On the procedure: as §1
(§2) Cynomolgus crossreactivity was also detected for all other antibodies but at lower levels compared to 10B10 and 07A04 (FIG. 9). No significant binding to CHO cells expressing murine GPRC5D and no binding to CHO cells expressing the human version of GPRC5A was detected (FIG. 9).
In general terms: In an ELISA, binding on a coated surface is turned into a signal by an enzyme label.

Assay [6] concerns the target T3, cynomolgus GPRC5D (cynomolgus).
T3 construct: whole, on cells; also called cyno GPRC5D; CHO cy GPCR5D
The assay is described as follows: cell ELISA, CHO cells stably expressing cynomolgus GPRC5D. On the procedure: as §1

Assay [7] concerns the target T4, murine GPRC5D (murine, UniProt Q9JIL6 1-344).
T4 construct: whole, on cells
T4 sequence (looked up): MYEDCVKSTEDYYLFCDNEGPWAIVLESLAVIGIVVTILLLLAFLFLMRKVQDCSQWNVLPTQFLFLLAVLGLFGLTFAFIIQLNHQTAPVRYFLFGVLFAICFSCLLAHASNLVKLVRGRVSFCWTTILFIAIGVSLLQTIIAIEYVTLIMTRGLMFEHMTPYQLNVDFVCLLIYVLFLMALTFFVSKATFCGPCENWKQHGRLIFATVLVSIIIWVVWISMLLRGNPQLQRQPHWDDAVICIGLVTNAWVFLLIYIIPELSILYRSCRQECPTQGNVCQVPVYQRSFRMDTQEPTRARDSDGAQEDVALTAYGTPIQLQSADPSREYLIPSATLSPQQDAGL
The assay can be described thus: cell ELISA on stably transfected CHO cells. As for the experimental part:
as §1, §2

For assay [8], the target named is T1, human GPRC5D. The assay can be described thus: cell-based or functional assay. This is another data set of the same source.
Assay [9] deals with T1, human GPRC5D. The assay is described as follows: cell-based or functional assay. This is another data set of the same source.
For assay [10], the target named is T1, human GPRC5D. The assay can be described thus: flow cytometry on NCI-H929 cells; paragraph 550 says these values were falsely calculated by a factor of 10 (too low). As for the experimental part: To measure the binding to GPRC5D, we performed a flow cytometry-based binding assay on reported multiple myeloma cell lines (Lombardi et al., Molecular characterization of human multiple myeloma cell lines by integrative genomics: insights into the biology of the disease; Genes Chromosomes Cancer. 2007 March; 46(3):226-38). The cell line NCI-H929 (ATCC® CRL-9068) was cultured in RPMI 1640 with Glutamax medium (Gibco) supplemented with 10% FBS, 1× Penicillin/Streptomycin (Gibco), 1× Sodium Pyruvate (Gibco) and 50 μM beta-Mercaptoethanol (Gibco). Jurkat-NFAT reporter cells (a CD3-expressing human acute lymphatic leukemia reporter cell line with a NFAT promoter, GloResponse Jurkat NFAT-RE-luc2P, Promega #CS176501) were cultured in RPMI 1640, containing 2 g/l Glucose, 2 g/l NaHCO₃, 10% FCS, 25 mM HEPES, 2 mM L-Glutamine, 1×NEAA, 1× Sodium-pyruvate and 200 μg/ml Hygromycin B.
Flow cytometry acquisition was performed on a custom-designed BD Biosciences Fortessa and analyzed using BD Diva. EC50 values were calculated, using GraphPad Prism software.

In assay [11] the target is T1, human GPRC5D. The assay is described as follows: cell-based or functional assay. The source holds these as a separate data set.

T1 sequence (Q9NZD1 whole entry): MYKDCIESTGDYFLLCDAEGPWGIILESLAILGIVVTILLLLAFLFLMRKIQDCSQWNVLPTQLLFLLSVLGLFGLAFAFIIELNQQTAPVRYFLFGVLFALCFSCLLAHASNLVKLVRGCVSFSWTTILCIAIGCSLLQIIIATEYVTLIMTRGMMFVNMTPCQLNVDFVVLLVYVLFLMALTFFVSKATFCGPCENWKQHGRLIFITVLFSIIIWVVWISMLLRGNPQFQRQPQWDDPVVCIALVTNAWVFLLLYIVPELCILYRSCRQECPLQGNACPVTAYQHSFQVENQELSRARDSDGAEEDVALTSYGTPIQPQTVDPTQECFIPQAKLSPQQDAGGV
T2 sequence (Q8NFJ5 whole entry): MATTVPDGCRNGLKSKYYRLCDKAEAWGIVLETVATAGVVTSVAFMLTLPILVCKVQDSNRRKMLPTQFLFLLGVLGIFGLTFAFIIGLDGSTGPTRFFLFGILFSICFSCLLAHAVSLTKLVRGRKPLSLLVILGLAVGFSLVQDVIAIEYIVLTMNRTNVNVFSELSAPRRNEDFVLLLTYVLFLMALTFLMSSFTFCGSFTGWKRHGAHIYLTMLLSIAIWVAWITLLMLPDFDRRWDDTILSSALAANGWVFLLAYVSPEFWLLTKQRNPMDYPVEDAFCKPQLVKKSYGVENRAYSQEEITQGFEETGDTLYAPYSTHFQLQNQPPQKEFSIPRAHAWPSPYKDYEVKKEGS

B1: 5F11-IgG (antibody, V domains shown)
VH: EVQLVESGGGLVQPGRSLKLSCAASGFSFSNYGMAWVRQAATKGLEWVASISTGGGNTYYRDSVKGRFIVSRDNAKNTQYLQMDSLRSEDTATYYCTRHDRGGLYWGQGVMVTVSS
VL: DIVMTQAPLSVSVTPGESASISCRSSKSLLHSNGITYVYWYFQKPGKSPQVLIYRMSNLASGVPDRFSGSGSETDFTLKISRVEAEDVGIYHCGQLLENPYTFGAGTELELK
notes: Rat-derived variable domains, tested as IgG; also called P1AE5733 (parental); 5F11_parental
Consider B1, for which, in assay [1], the “CAR-J2 EC50 [ng/mL] (PGLALA-CAR-J activation, L363 target cells)” value was determined as 2.65 ng/mL. The “EC50 values of CAR-J activation” value in assay [2] was 2.65 ng/mL. Further, the EC50 (commonly the concentration giving half of the maximal effect) in [3] is 0.0217 µg/mL and 0.144 nM; in [4] it was 0.0058 µg/mL and 0.04 nM. In addition, in [5], the binding result is “no binding (tested: assay conc. starts at 30 µg/ml)”.

B2: 10B10 IgG (antibody, V domains shown)
VH: EVQLVESGGGLVQPGRSMKLSCAASGFTFTNFYMAWVRQAPTKALEWVASINTGGGYTYYRDSVKGRFTVSRDNTRSTLYLQMDSLRSEETATYYCARHLTYYGRYYYFDYWGQGVMVTVSS
VL: DIQLTQSPHSLSASLGETVSIECLASEGISNYLAWFHQKPGKSPQLLIYYASSLQDGVPSRFSGSGSGTQYSLKISNMQPEDEGVYYCQQGYKYPLTFGSGTKLEIK
Consider B2, for which the EC50 is 0.0163 µg/mL and 0.109 nM in assay [3]; 0.012 µg/mL and 0.08 nM in [6]. Moreover, the binding result in assay [7] and in [5] was “no binding (tested: assay conc. starts at 30 µg/ml)” throughout.

B3: 5F11(VH1c + VL1b)-C122-TCB (P1AE6624) (bispecific antibody, human IgG1, kappa, L234A L235A)
light 1: DIVMTQSPLSLPVTPGEPASISCRSSKSLLHSNGITYVYWYLQKPGKSPQVLIYRMSNLASGVPDRFSGSGSGTDFTLKISRVEAEDVGVYHCGQLLENPYTFGQGTKLEIKRTVAAPSVFIFPPSDRKLKSGTASVVCLLNNFYPREAKVQWKVDNALQSGNSQESVTEQDSKDSTYSLSSTLTLSKADYEKHKVYACEVTHQGLSSPVTKSFNRGEC
light 2: EVQLLESGGGLVQPGGSLRLSCAASGFQFSSYAMNWVRQAPGKGLEWVSRIRSKYNNYATYYADSVKGRFTISRDDSKNTLYLQMNSLRAEDTAVYYCVRHTTFPSSYVSYYGYWGQGTLVTVSSASVAAPSVFIFPPSDEQLKSGTASVVCLLNNFYPREAKVQWKVDNALQSGNSQESVTEQDSKDSTYSLSSTLTLSKADYEKHKVYACEVTHQGLSSPVTKSFNRGEC
heavy 1: QVQLVESGGGVVQPGRSLRLSCAASGFSFSNYGMAWVRQAPGKGLEWVASISTGGGNTYYADSVKGRFTISRDNSKNTLYLQMNSLRAEDTAVYYCTRHDRGGLYWGQGTMVTVSSASTKGPSVFPLAPSSKSTSGGTAALGCLVEDYFPEPVTVSWNSGALTSGVHTFPAVLQSSGLYSLSSVVTVPSSSLGTQTYICNVNHKPSNTKVDEKVEPKSCDKTHTCPPCPAPEAAGGPSVFLFPPKPKDTLMISRTPEVTCVVVDVSHEDPEVKFNWYVDGVEVHNAKTKPREEQYNSTYRVVSVLTVLHQDWLNGKEYKCKVSNKALGAPIEKTISKAKGQPREPQVCTLPPSRDELTKNQVSLSCAVKGFYPSDIAVEWESNGQPENNYKTTPPVLDSDGSFFLVSKLTVDKSRWQQGNVFSCSVMHEALHNHYTQKSLSLSPGK
heavy 2: not shown
notes: 2+1 TCB: LC1 (anti-GPRC5D), LC2 (anti-CD3 crossed), HC1 Fc hole, HC2 Fc knob
As to B3, the “EC50 (pM), activation of autologous T-cells (CD69 on CD8 T cells) with a primary MM sample” value in [8] is 1.06 pM. Also, in assay [9], the “AUC, activation of Jurkat-NFAT reporter cells in presence of RPMI-8226 cells” value was found to be 881000 and the “EC50 (pM), activation of Jurkat-NFAT reporter cells in presence of RPMI-8226 cells” value is 4.5 pM. In addition, the EC50 in assay [10] was 0.1 nM.

B4: 5E11-IgG (antibody, V domains shown)
VH: ELQLEQSGGGLVQPGGSLTLSCAASGFTFSKYAMAWVRQAPTKGLEWVASISTGGVNTYYRDSVKARFTISRDNAKNTQYLQMDSLRSEDTATYYCATHTGDYFDYWGQGVMVTVSS
VL: DIVLTQSPALAVSPGQRATISCRASQSVSISGINLMNWYQQKPGQQPKLLIYHASILASGIPTRFSGSGSGTDFTLTIDPVQADDIATYYCQQTRESPLTFGSGTNLEIK
notes: Rat-derived variable domains, tested as IgG; also called P1AE5706 (parental); 5E11 parental
As to B4, in assay [2], the “EC50 values of CAR-J activation” value turned out to be 3.9 ng/mL. The 50% effective concentration (EC50) is 0.0296 µg/mL and 0.198 nM in [3]; 0.0104 µg/mL and 0.07 nM in assay [4]. Besides, in assay [11], the “CAR-J2 EC50 [ng/mL] (PGLALA-CAR-J activation, L363 target cells)” value was 3.9 ng/mL. Also, the binding result in assay [5] is reported as “no binding (tested: assay conc. starts at 30 µg/ml)”.

B5: 07A04 IgG (antibody, V domains shown)
VH: QVTLKESGPGILQPSHTLSLTCSFSGFSLSTYGMGVNWIRQPSGKGLEWLASIWWNGNTYNNPSLKSRLTVSKDTSNNQAFLKVTSVDTADTATYYCVHTRGIIRGRGLFFDYWGQGVMVTVSS
VL: DVQMTQSPYNLAASPGESVSINCKASKSISKYLAWYQQKPGKANKLLIYDGSTLQSGIPSRFSGSGSGTDFTLTIRSLEPEDFGLYYCQQHNEYPLTFGSGTKLEIKR
notes: the format as tested is not certain
For the molecule B5, the 50% effective concentration (EC50) in assay [3] is 0.0243 µg/mL and 0.162 nM; in assay [6] it was 0.115 µg/mL and 0.764 nM. Also, the binding result in assay [7] and in assay [5] was “no binding (tested: assay conc. starts at 30 µg/ml)” in each case.
